From publication PMC10675231, “Electrochemiluminescence Aptasensor with Dual Signal Amplification by Silica Nanochannel-Based Confinement Effect on Nanocatalyst and Efficient Emitter Enrichment for Highly Sensitive Detection of C-R”

Tests used:
[1] = target: cancer antigen 15-3 (CA15-3) (UniProt P15941 24-1097); assay: electrochemiluminescence aptasensor; 100 ng/mL CA15-3; change very minimal vs 10 ng/mL CRP; 0.01 M phosphate buffer (KH2PO4/Na2HPO4) pH 7.4; CRP incubation 80 min; binding temperature not stated; details: protein: commercial
C-reactive protein (CRP) [2] = target: T1, C-reactive protein (CRP) (human, UniProt P02741 19-224); assay: electrochemiluminescence aptasensor; Ru(bpy)3 2+/TPrA; BSA-blocked; linear 10 pg/mL-1 ug/mL, LOD 7.4 pg/mL; 0.01 M phosphate buffer (KH2PO4/Na2HPO4) pH 7.4; CRP incubation 80 min; binding temperature not stated; details: protein: recombinant; chain copies: 5
T1 sequence: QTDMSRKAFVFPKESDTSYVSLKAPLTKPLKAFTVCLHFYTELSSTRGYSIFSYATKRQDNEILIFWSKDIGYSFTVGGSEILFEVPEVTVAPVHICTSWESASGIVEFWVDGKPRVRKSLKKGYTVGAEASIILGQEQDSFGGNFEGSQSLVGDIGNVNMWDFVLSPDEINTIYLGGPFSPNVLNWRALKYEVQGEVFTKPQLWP

alpha-fetoprotein (AFP) = target: T2, alpha-fetoprotein (AFP) (UniProt P02771 19-609); assay: electrochemiluminescence aptasensor; 100 ng/mL AFP; change very minimal vs 10 ng/mL CRP; 0.01 M phosphate buffer (KH2PO4/Na2HPO4) pH 7.4; CRP incubation 80 min; binding temperature not stated; details: protein: commercial
T2 sequence: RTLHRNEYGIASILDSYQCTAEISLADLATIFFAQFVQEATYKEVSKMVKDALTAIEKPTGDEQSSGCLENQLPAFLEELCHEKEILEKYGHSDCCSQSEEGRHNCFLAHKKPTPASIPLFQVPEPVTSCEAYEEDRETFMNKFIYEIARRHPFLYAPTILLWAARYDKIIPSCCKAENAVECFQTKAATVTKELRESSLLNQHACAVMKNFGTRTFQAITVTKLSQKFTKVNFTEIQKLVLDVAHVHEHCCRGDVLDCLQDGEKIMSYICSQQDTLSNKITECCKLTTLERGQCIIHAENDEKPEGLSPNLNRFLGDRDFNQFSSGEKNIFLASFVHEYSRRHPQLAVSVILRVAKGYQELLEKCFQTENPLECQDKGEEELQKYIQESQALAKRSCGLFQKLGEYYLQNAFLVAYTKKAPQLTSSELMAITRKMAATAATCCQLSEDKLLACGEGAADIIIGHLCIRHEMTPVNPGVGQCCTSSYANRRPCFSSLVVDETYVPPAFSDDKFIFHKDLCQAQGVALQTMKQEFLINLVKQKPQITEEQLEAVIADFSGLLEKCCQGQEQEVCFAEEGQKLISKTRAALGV

C-reactive protein (CRP) [3] = target: T1, C-reactive protein (CRP); assay: electrochemiluminescence aptasensor; no significant signal change; 0.01 M phosphate buffer (KH2PO4/Na2HPO4) pH 7.4; CRP incubation 80 min; binding temperature not stated; details: protein: recombinant; chain copies: 5

Chain of cancer antigen 15-3 (CA15-3) (P15941 24-1097): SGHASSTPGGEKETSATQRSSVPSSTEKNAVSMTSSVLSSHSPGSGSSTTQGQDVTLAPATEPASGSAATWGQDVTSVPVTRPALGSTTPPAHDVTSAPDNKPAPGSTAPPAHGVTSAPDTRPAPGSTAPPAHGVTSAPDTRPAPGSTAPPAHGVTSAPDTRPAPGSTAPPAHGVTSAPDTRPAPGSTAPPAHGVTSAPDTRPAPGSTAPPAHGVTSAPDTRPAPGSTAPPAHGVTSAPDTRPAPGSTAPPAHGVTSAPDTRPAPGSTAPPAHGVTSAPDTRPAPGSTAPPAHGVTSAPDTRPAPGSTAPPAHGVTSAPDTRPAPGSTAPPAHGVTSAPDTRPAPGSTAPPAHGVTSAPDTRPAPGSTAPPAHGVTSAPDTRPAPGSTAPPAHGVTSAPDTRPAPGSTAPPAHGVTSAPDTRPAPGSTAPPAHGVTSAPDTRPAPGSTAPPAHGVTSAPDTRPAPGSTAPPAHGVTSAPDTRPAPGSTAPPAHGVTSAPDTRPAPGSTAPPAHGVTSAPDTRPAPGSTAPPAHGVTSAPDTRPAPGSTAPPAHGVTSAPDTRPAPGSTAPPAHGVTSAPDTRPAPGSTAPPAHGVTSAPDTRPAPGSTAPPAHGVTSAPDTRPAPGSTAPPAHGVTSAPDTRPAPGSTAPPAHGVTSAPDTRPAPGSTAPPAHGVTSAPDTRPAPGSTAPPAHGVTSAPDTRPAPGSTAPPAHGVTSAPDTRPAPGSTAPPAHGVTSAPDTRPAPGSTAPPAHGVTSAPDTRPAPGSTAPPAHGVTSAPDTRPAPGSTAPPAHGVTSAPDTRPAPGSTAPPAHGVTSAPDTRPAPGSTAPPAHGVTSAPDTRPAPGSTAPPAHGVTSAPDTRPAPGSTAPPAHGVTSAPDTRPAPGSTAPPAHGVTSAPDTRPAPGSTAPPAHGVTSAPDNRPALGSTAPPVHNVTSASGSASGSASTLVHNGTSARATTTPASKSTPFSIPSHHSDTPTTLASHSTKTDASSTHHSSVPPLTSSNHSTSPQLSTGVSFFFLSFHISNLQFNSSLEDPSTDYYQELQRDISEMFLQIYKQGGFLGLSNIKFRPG

Binder	binding result [1]	binding result (C-reactive protein (CRP) [2])	binding result (alpha-fetoprotein (AFP))	binding result (C-reactive protein (CRP) [3])
CGAAGGGGATTCGAGGGGTGATTGCGTGCTCCATTTGGTG (ssDNA, 5'-NH2) [CRP aptamer]	no binding	binds	no binding	–
ATTAAAGCTCGCCATCAAATAGCTGC (ssDNA, 5'-NH2) [PSA aptamer]	–	–	–	no binding
ATACCAGCTTATTCAATT (ssDNA, 3'-NH2 (sequence line; text also says 5' amino)) [CEA aptamer]	–	–	–	no binding
GTTGGGCACGTGTTGTCTCTCTGTGTCTCGTGCCCTTCGCTAGGCCCACA (ssDNA, 3'-NH2 (sequence line; text also says 5' amino)) [AFB1 aptamer]	–	–	–	no binding
